# ± gives the uncertainty stated by the source.
# B1: Intersectin-2, residues 1129 to 1183; numbered along this chain, Q9NZM3 (parent)
# chain: VCQVIAMYDYAANNEDELSFSKGQLINVMNKDDPDWWQGEINGVTGLFPSNYVKM
# Variants of: B1
# Assay: abundance fitness (aPCA) (normalised: wild type 0, dead -1); higher = more abundant; growth selection in yeast, the domain comes from the species named
# Details: Homo sapiens
row,Variant,abundance fitness
1,VCQVIAMYDYAANNEDELSFSKGQLPNVMNKDDPDWWQGEINGVTGLFPSNYVKM [I26P],-0.925 ± 0.048
2,VCQVIAMYDYAANNEDELSFSKGQLVNVMNKDDPDWWQGEINGVTGLFPSNYVKM [I26V],-0.089 ± 0.033
3,VCQVIAMYDYAANNEDELSFSKGQLLNVMNKDDPDWWQGEINGVTGLFPSNYVKM [I26L],-0.065 ± 0.037
4,VCQVIAMYDYAANNEDELSFSKGQLANVMNKDDPDWWQGEINGVTGLFPSNYVKM [I26A],-0.961 ± 0.068
5,VCQVIAMYDYAANNEDELSFSKGQLWNVMNKDDPDWWQGEINGVTGLFPSNYVKM [I26W],-0.971 ± 0.076
6,VCQVIAMYDYAANNEDELSFSKGQLNNVMNKDDPDWWQGEINGVTGLFPSNYVKM [I26N],-0.719 ± 0.13
7,VCQVIAMYDYAANNEDELSFSKGQLENVMNKDDPDWWQGEINGVTGLFPSNYVKM [I26E],-0.789 ± 0.088
8,VCQVIAMYDYAANNEDELSFSKGQLDNVMNKDDPDWWQGEINGVTGLFPSNYVKM [I26D],-0.857 ± 0.18
9,VCQVIAMYDYAANNEDELSFSKGQLKNVMNKDDPDWWQGEINGVTGLFPSNYVKM [I26K],-0.972 ± 0.065
10,VCQVIAMYDYAANNEDELSFSKGQLTNVMNKDDPDWWQGEINGVTGLFPSNYVKM [I26T],-0.88 ± 0.095
11,VCQVIAMYDYAANNEDELSFSKGQLFNVMNKDDPDWWQGEINGVTGLFPSNYVKM [I26F],-0.085 ± 0.031
12,VCQVIAMYDYAANNEDELSFSKGQLYNVMNKDDPDWWQGEINGVTGLFPSNYVKM [I26Y],-0.657 ± 0.12
13,VCQVIAMYDYAANNEDELSFSKGQLMNVMNKDDPDWWQGEINGVTGLFPSNYVKM [I26M],-0.232 ± 0.04
14,VCQVIAMYDYAANNEDELSFSKGQLGNVMNKDDPDWWQGEINGVTGLFPSNYVKM [I26G],-0.821 ± 0.044
15,VCQVIAMYDYAANNEDELSFSKGQLRNVMNKDDPDWWQGEINGVTGLFPSNYVKM [I26R],-0.951 ± 0.05
16,VCQVIAMYDYAANNEDELSFSKGQLHNVMNKDDPDWWQGEINGVTGLFPSNYVKM [I26H],-1.07 ± 0.26
17,VCQVIAMYDYAANNEDELSFSKGQFINVMNKDDPDWWQGEINGVTGLFPSNYVKM [L25F],-0.006 ± 0.058
18,VCQVIAMYDYAANNEDELSFSKGQQINVMNKDDPDWWQGEINGVTGLFPSNYVKM [L25Q],-0.089 ± 0.064
19,VCQVIAMYDYAANNEDELSFSKGQTINVMNKDDPDWWQGEINGVTGLFPSNYVKM [L25T],-0.059 ± 0.055
20,VCQVIAMYDYAANNEDELSFSKGQMINVMNKDDPDWWQGEINGVTGLFPSNYVKM [L25M],0.031 ± 0.049
21,VCQVIAMYDYAANNEDELSFSKGQIINVMNKDDPDWWQGEINGVTGLFPSNYVKM [L25I],0.006 ± 0.04
22,VCQVIAMYDYAANNEDELSFSKGQPINVMNKDDPDWWQGEINGVTGLFPSNYVKM [L25P],-0.126 ± 0.056
23,VCQVIAMYDYAANNEDELSFSKGQDINVMNKDDPDWWQGEINGVTGLFPSNYVKM [L25D],0.024 ± 0.065
24,VCQVIAMYDYAANNEDELSFSKGQCINVMNKDDPDWWQGEINGVTGLFPSNYVKM [L25C],-0.088 ± 0.051

row,Variant,abundance fitness
1,VCQVIAMYDYAANNEDELSFSKGQKINVMNKDDPDWWQGEINGVTGLFPSNYVKM [L25K],-0.064 ± 0.052
2,VCQVIAMYDYAANNEDELSFSKGQGINVMNKDDPDWWQGEINGVTGLFPSNYVKM [L25G],-0.035 ± 0.032
3,VCQVIAMYDYAANNEDELSFSKGQNINVMNKDDPDWWQGEINGVTGLFPSNYVKM [L25N],-0.054 ± 0.068
4,VCQVIAMYDYAANNEDELSFSKGQWINVMNKDDPDWWQGEINGVTGLFPSNYVKM [L25W],-0.098 ± 0.032
5,VCQVIAMYDYAANNEDELSFSKGQSINVMNKDDPDWWQGEINGVTGLFPSNYVKM [L25S],-0.01 ± 0.032
6,VCQVIAMYDYAANNEDELSFSKGQEINVMNKDDPDWWQGEINGVTGLFPSNYVKM [L25E],0.057 ± 0.041
7,VCQVIAMYDYAANNEDELSFSKGQVINVMNKDDPDWWQGEINGVTGLFPSNYVKM [L25V],-0.011 ± 0.03
8,VCQVIAMYDYAANNEDELSFSKGQYINVMNKDDPDWWQGEINGVTGLFPSNYVKM [L25Y],-0.115 ± 0.07
9,VCQVIAMYDYAANNEDELSFSKGQHINVMNKDDPDWWQGEINGVTGLFPSNYVKM [L25H],-0.054 ± 0.039
10,VCQVIAMYDYAANNEDELSFSKGGLINVMNKDDPDWWQGEINGVTGLFPSNYVKM [Q24G],-0.073 ± 0.037
11,VCQVIAMYDYAANNEDELSFSKGKLINVMNKDDPDWWQGEINGVTGLFPSNYVKM [Q24K],-0.118 ± 0.045
12,VCQVIAMYDYAANNEDELSFSKGNLINVMNKDDPDWWQGEINGVTGLFPSNYVKM [Q24N],-0.05 ± 0.04
13,VCQVIAMYDYAANNEDELSFSKGDLINVMNKDDPDWWQGEINGVTGLFPSNYVKM [Q24D],0.022 ± 0.06
14,VCQVIAMYDYAANNEDELSFSKGVLINVMNKDDPDWWQGEINGVTGLFPSNYVKM [Q24V],-0.078 ± 0.034
15,VCQVIAMYDYAANNEDELSFSKGFLINVMNKDDPDWWQGEINGVTGLFPSNYVKM [Q24F],-0.015 ± 0.066
16,VCQVIAMYDYAANNEDELSFSKGMLINVMNKDDPDWWQGEINGVTGLFPSNYVKM [Q24M],-0.051 ± 0.033
17,VCQVIAMYDYAANNEDELSFSKGWLINVMNKDDPDWWQGEINGVTGLFPSNYVKM [Q24W],-0.038 ± 0.052
18,VCQVIAMYDYAANNEDELSFSKGELINVMNKDDPDWWQGEINGVTGLFPSNYVKM [Q24E],-0.007 ± 0.039
19,VCQVIAMYDYAANNEDELSFSKGYLINVMNKDDPDWWQGEINGVTGLFPSNYVKM [Q24Y],-0.153 ± 0.051
20,VCQVIAMYDYAANNEDELSFSKGLLINVMNKDDPDWWQGEINGVTGLFPSNYVKM [Q24L],-0.199 ± 0.037
21,VCQVIAMYDYAANNEDELSFSKGRLINVMNKDDPDWWQGEINGVTGLFPSNYVKM [Q24R],-0.128 ± 0.045
22,VCQVIAMYDYAANNEDELSFSKGHLINVMNKDDPDWWQGEINGVTGLFPSNYVKM [Q24H],-0.154 ± 0.043
23,VCQVIAMYDYAANNEDELSFSKGCLINVMNKDDPDWWQGEINGVTGLFPSNYVKM [Q24C],-0.151 ± 0.053
24,VCQVIAMYDYAANNEDELSFSKGSLINVMNKDDPDWWQGEINGVTGLFPSNYVKM [Q24S],-0.073 ± 0.045

# From the Human Domainome abundance scans (Beltran et al. 2025)
